Assay results taken from the supplement of paper PMC10567573.

B1: HDAC6 (parent)
chain: YVHHQALLDVKNIAHQNKFGEDMP
B2: MMP1 (parent)
chain: YTPDLPRADVDHAIEKAFQLWSNV

Variants of: B1
Experiment: protein stability index of a GFP-peptide fusion (GPS, HEK-293T) (PSI 1-6); higher = more stable
Conditions: c terminus: a fixed tail appended
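Further: lentivirally expressed fusions sorted by FACS into six bins by GFP to DsRed ratio, PSI derived from sequencing read proportions per bin multiplied by bin number.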

Protein stability index of substitutions, site by site:
Q5: L 1.75 | Y 2.35
V2: R 3.69 | G 3.43 | P 3
D9: M 1.76
I13: W 2.16 | G 2.39
Y1: H 3.66
L7: M 2.32 | H 2.25 | R 1.8
K18: I 2.15 | Y 2.2
L8: M 1.95 | W 1.81 | N 2.71 | I 1.65
M23: S 2.13 | Y 2.14 | A 1.94 | K 2.26 | D 2.17
Q16: N 2.15 | H 1.77 | F 1.59
K11: V 1.41 | F 2.13 | M 1.72 | S 2.74 | H 2.21
N17: R 1.89 | H 1.72
G20: H 2.19
P24: R 1.56 | N 2.19 | Q 1.91 | K 2.25
A14: H 1.74 | M 1.99
F19: K 1.91 | W 1.73 | Q 2.35 | S 2.39
H4: W 3.43 | R 1.74 | L 2.2
H3: V 2.46 | Y 1.69 | R 1.39 | G 2.03
E21: C 2.23 | D 1.97
D22: V 1.5

Variants of: B2
Experiment: as above
Conditions: c terminus: a fixed tail appended

Protein stability index of substitutions, site by site:
A17: N 1.53 | F 1.97 | W 1.25 | M 2 | I 2.15 | K 1.44 | H 2.68 | P 1.43 | V 2.38 | S 2.11 | L 1.79 | R 1.63
F18: G 2.23 | M 2.04 | S 1.67 | E 2.29 | L 1.46 | N 1.94 | K 2.22 | T 2.13 | H 3.17
V10: C 2.1 | D 2.16 | R 2.55 | A 2.06 | H 1.58 | P 1.49 | E 1.81 | W 3.04 | K 2.44 | S 1.88 | F 1.79 | T 1.91 | L 1.27 | I 1.76 | N 1.48 | Q 1.81
R7: L 1.42 | N 1.64 | M 2.25 | A 2.3 | Q 1.92 | K 2.12 | C 2.01 | I 1.5 | F 2.09 | W 1.79 | Y 1.08
P6: R 1.78 | S 2.55 | D 2.01 | F 1.82 | N 1.8 | G 2.17 | M 2.2 | Y 1.47 | T 1.78 | I 2.09 | A 1.56
D9: R 1.16 | K 2.44 | L 1.3 | F 1.57 | I 1.78 | T 1.82 | V 2.62 | W 1.51 | P 1.54 | E 1.75
S22: G 1.81 | T 1.59 | F 1.82 | W 1.91 | Y 1.67 | N 1.85 | H 1.43 | C 2.02 | K 2.03 | A 1.78 | D 2.59 | P 1.85
W21: D 3.88 | I 2.67 | A 3.05 | T 3.42 | C 3.03 | G 3.01 | R 3.25 | P 3.4 | Y 2.5 | N 3.36 | F 2.13 | K 3.4 | H 3.42 | Q 2.88
V24: G 2.37 | E 2.16 | D 2.02 | C 1.87 | P 2.43 | F 1.83 | W 2.39 | K 2.5 | T 2.29
I14: K 2.14 | V 2.08 | N 1.88 | D 1.81 | R 2.31 | G 2.25 | A 1.68 | Q 2.3 | F 2.14 | L 1.39 | S 1.51
N23: Q 1.57 | F 2.29 | R 2.01 | Y 1.43 | D 1.86 | E 2.49 | G 2.12 | A 2.05 | L 2.1 | W 1.97 | K 2.28
D4: E 1.4 | H 2.28 | F 2.54 | W 1.94 | K 2.38 | Y 3.17 | A 1.75 | T 3.69 | V 3.17 | S 2.35 | Q 2.62 | R 2.52 | P 1.99 | N 2.56
Y1: K 3.32 | S 3.52 | H 3.43 | I 2.64 | Q 3.08 | N 3.18 | E 3.53 | M 3.16 | P 3.47 | R 2.97 | C 2.33 | W 2.32 | T 2.92 | V 3.19 | A 4.18 | G 2.97
L20: T 2.21 | Y 1.78 | K 2.9 | P 1.88 | M 1.77 | N 2.19 | E 3.55 | Q 1.59 | C 1.84 | W 1.1 | V 2.76
A8: G 2.83 | I 1.88 | R 1.67 | D 1.53 | T 1.79 | V 1.64 | E 2.67 | H 1.75 | Q 1.57 | W 1.87 | L 2.03 | M 1.74 | F 2.94 | P 1.51
A13: H 2.27 | K 2.1 | F 1.79 | I 2.27 | V 2.79 | W 2.06 | L 1.63 | E 2.19 | N 2.11 | D 1.71 | P 1.58 | G 3.15 | T 3
K16: W 3.17 | N 1.52 | Y 3.76 | M 1.54 | I 2.71 | P 1.83 | Q 1.76 | H 2.06 | V 2.28 | R 1.8 | F 1.52
T2: W 2.16 | A 2.4 | C 1.93 | K 2.56 | L 1.83 | N 2.18 | H 2.11 | F 2.17
D11: W 1.73 | R 2.69 | F 2.12 | A 2.08 | P 3.09 | K 2.21 | I 1.94 | V 1.59 | T 2.62 | E 1.4
E15: I 2.53 | D 1.58 | T 2.46 | Y 2.07 | R 2.73 | M 2.46 | K 1.32 | Q 1.46 | F 2.56 | S 2.19 | C 2.24
L5: C 1.84 | R 2.49 | E 2.16 | W 2.17 | M 2.12 | T 2.02 | Q 2.07 | F 2.64 | N 1.92 | H 2.2 | Y 1.44
Q19: R 2.15 | W 1.96 | M 1.68 | Y 1.87 | H 1.97 | V 2.66 | E 1.98 | K 1.86 | P 1.52 | F 2.43 | S 1.7
P3: C 1.54 | L 1.62 | S 2.36 | E 2.66 | D 3.37 | V 2.13 | N 2.5 | R 2.49 | A 1.79 | K 2.01 | Y 1.8 | G 1.62 | F 2.3 | Q 2.96
H12: W 2.21 | M 1.63 | C 1.62 | E 2.04 | F 1.7 | A 2.46 | K 1.79 | Y 2 | G 2.03 | L 2.19
